# Assay results as given in US20240294670A1 (University of Texas, published 2024).
# Legend:
# recombinant mouse CHI3L1 [1] = target: T1, recombinant mouse CHI3L1 (mouse, UniProt Q61362 30-389, limits assumed); assay: ELISA: mouse CHI3L1 coated on the plate, B cell culture supernatant 100 ul/well, A450
# T1 construct: His-tagged; also called mCHI3L1; mChi3l1
# Description: (§1) FIG. 7. The ELISA binding of the supernatant antibody to the human CHI3L1. (hCHI3L1), and mouse CHI3L1 (mCHI3L1). The CHI3L1 protein was coated on maxi-sorp 96-well plates, cell culture supernatant (100 ul/well) was used for binding on the antigen coated plate. Binding signals (A450 nm) are shown in Y-axis and CHI3L1 mAbs are shown on X-axis.
# (§2) Binding affinity of anti-CHI3L1 monoclonal antibodies to the CHI3L1 protein using ELISA method. Binding of CHI3L1 by monoclonal antibodies was first screened by ELISA using supernatants collected from the B cell cultures and cross reactivity to mouse CHI3L1 protein was determined (FIG. 7).
# recombinant human CHI3L1 [2] = target: T2, recombinant human CHI3L1 (human, UniProt P36222 22-383); assay: ELISA: human CHI3L1 coated on the plate, B cell culture supernatant 100 ul/well, A450
# T2 construct: His-tagged recombinant protein (Sino Biological 11227-H08H, or in-house HEK293 protein with 6xHIS-tag and avi-tag); also called hCHI3L1; hChi3l1
# T2 sequence (P36222 22-383 limits assumed): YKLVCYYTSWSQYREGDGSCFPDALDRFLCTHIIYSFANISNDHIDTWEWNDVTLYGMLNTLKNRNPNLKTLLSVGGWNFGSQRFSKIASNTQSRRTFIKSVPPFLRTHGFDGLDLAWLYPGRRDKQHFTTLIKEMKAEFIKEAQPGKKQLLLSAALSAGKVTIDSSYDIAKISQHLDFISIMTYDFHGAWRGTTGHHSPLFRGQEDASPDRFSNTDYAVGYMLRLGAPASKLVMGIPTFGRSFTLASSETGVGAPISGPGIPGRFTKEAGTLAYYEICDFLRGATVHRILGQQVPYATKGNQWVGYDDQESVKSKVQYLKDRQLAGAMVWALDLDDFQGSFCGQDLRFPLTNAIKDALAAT
# Description: as §1, §2
# recombinant human CHI3L1 [3] = target: T2, recombinant human CHI3L1; assay: Octet BLI
# recombinant mouse CHI3L1 [4] = target: T1, recombinant mouse CHI3L1; assay: BLI (Octet), mAb on protein A sensor, CHI3L1 in solution, 1:1 fit
# Description: (§3) FIG. 8. Kinetic binding sensorgrams collected on Octet instrument for determination of kon and koff rates for each CHI3L1 antibody.
# (§4) Binding affinity of anti-CHI3L1 monoclonal antibodies determined using Bio-layer interferometry (BLI), a sensor-based Octet instrument. […] Following by kinetics buffer washing to baseline, the loaded biosensors were exposed to a series of recombinant CHI3L1 protein at 0.1-200 nM range and background subtraction was used to correct for any background from sensor drifting. All experiments were performed with shaking at 1,000 rpm. Background wavelength shifts were measured from reference biosensors that were loaded with antibody and followed with buffer without antigen. ForteBio's data analysis software was used to fit the data to a 1:1 binding model to extract an association rate and dissociation rate. The KD was calculated using the ratio of koff/kon and the estimated values of KD for CHI3L1 mAbs in Table C.
# recombinant human CHI3L1 [5] = target: T2, recombinant human CHI3L1; assay: as above
# Description: as §3, §4
# T1 sequence (Q61362 30-389 limits assumed): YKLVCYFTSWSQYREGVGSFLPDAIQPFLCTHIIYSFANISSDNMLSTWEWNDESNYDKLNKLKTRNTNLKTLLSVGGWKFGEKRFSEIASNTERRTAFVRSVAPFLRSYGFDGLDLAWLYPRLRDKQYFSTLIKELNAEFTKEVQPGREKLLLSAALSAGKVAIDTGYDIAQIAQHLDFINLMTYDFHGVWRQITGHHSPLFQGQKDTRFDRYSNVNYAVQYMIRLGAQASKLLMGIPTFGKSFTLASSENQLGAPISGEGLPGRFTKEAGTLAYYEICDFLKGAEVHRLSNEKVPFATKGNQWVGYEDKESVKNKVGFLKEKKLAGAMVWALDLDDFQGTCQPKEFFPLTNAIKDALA
binding result (recombinant mouse CHI3L1 [1]),binding result (recombinant human CHI3L1 [2]),Binder,further results
no binding,binds,"anti-CHI3L1 monoclonal antibody C28 (antibody, V domains shown, Rabbit mAb) VH: QQLKESGGDLVKPGASLTLTCTASGFSFSSGYYMCWVRQAPGKGLEWIACIGASSGLTNYASWAKGRFTISKTSSTTVTLRMTSLTAADTATYFCARVYLGGADYEQFNLWGPGTLVTVSS VL: AQVLTQTPSSASEPVGGTVTIKCQAGESVSSRVAWYQQKPGQPPKLLIFDASALASGVSSRFTGSGSGTQFTLTISDLECADAATYYCQNYYGISGVAFGGGTEVVVK",
no binding,binds,"anti-CHI3L1 monoclonal antibody C21 (antibody, V domains shown, Rabbit mAb) VH: QSVKESGGGLVQPEGSLTLTCTASGFSFSSSYYMCWVRQAPGKGLEWIACIYNGDGSTYYASWAKGRFTISKTSSTTVTLQMTSLTAADTATYFCARDADYAGVVLNLWGPGTLVTVSS VL: AQVLTQTPASVEAAVGGTVTIKCQASESIGNALAWYQQKPGQPPKLLIYVASYLASGVSSRFKGSRSGTEYTLTISDLECVDAATYYCQCTWYGNVYLAFGGGTEVVVK",
,,"humanized C7 antibody C7Hu (antibody, V domains shown, Humanized form of C7) VH: QVQLVESGGGVVQPGRSLRLSCAASGFTLTTYWVCWVRQAPGKGLEWVACIDAGSITYYTTWARGRFTISRDNSTNTLFLQMNSLRAEDTAVYYCARDAHYTYALVLWGRGTLVTVSS VL: DIQMTQSPSSVSASVGDRVTIKCQASEDIESYLAWYQQKPGKAPKLLIYDASDLASGVPSRFSGSGSGTDFTLTISSLQPEDAATYYCQGYSYGSSYVGFGGGTKVEIK",Kd (recombinant human CHI3L1 [3]): 0.88 nM; koff (recombinant human CHI3L1 [3]): 0.000492 s⁻¹; kon (recombinant human CHI3L1 [3]): 559000 M⁻¹ s⁻¹
,,"anti-CHI3L1 monoclonal antibody C53 (antibody, V domains shown, Rabbit mAb from single B cells, expressed as full length IgG in HEK293) VH: QEQLVESGGDLVKPGASLTLTCTASGFSFSSSHYMCWVRQAPGKGLEWIACIYLGDDSTYYASWVNGRFSISKTSSTTVTLQMTSLTAADTATYFCARHGYNLAIHNYIIWGPGTLVTVSS VL: DVVMTQTPSSVEAGVGGTVTIKCQASESSSRHLSWYQQKPGQRPKLLIYWASTLASGVPSRFQGSGSGTEFTLTISDLECADAATYYCQSYYGLSNNGWRYAFGGGTEVVVK",Kd (recombinant mouse CHI3L1 [4]): 3.54 nM; koff (recombinant mouse CHI3L1 [4]): 0.000273 s⁻¹; kon (recombinant mouse CHI3L1 [4]): 77300 M⁻¹ s⁻¹; Kd (recombinant human CHI3L1 [5]): < 0.001 nM; koff (recombinant human CHI3L1 [5]): < 1e-07 s⁻¹; kon (recombinant human CHI3L1 [5]): 137000 M⁻¹ s⁻¹
no binding,binds,"anti-CHI3L1 monoclonal antibody C25 (antibody, V domains shown, Rabbit mAb) VH: QSVEESGGDLVKPGASLTLTCTASGFSFSSSYYMCWVRQAPGKGLEWIACIYAGSSGSTWYASWAKGRFTISITSSTTVTLQMTSLTAADTATYFCARDRYGGGSYYIPYYFDLWGPGTLVTVSS VL: ALVMTQTPSPVSAAVGGTVTINCQASQNIYVDSYLAWYQQKSGQPPKLLIYYASSLASGVPSRFSGSGSGTQFTLTISDLECDDAATYYCAGGYSADSDNAFGGGTEVVVK",
,,"anti-CHI3L1 monoclonal antibody C59 (antibody, V domains shown, Rabbit mAb from single B cells, expressed as full length IgG in HEK293; also called clone 59; C59mAb) VH: QSVEESGGDLVKPGASLTLTCTASGFTISSDYYMCWVRQAPGKGLEWIGCIYIGSGTDTYYASWAKGRFTISKTSSTTVTLQMTSLTAADTATYFCARDKGWSNAWGFYFQLWGPGTLVTVSS VL: DPVLTQTPASVEVPVGGTVTINCQASQSIGKYLNWYQQKPGQPPKLLIYSSSSLASGVSSRFKGSGFGTQFTLTISGVQCADAATYYCQQGYSYVDLENGFGGGTELEIL",Kd (recombinant mouse CHI3L1 [4]): 3.43 nM; koff (recombinant mouse CHI3L1 [4]): 0.000402 s⁻¹; kon (recombinant mouse CHI3L1 [4]): 117000 M⁻¹ s⁻¹; Kd (recombinant human CHI3L1 [5]): 1.42 nM; koff (recombinant human CHI3L1 [5]): 0.000235 s⁻¹; kon (recombinant human CHI3L1 [5]): 166000 M⁻¹ s⁻¹
,,"anti-CHI3L1 monoclonal antibody C56 (antibody, V domains shown, Rabbit mAb from single B cells, expressed as full length IgG in HEK293) VH: QEQLVESGGDLVKPGASLTLTCTASGFSFSSSYWICWVRQAPGKGLELIACIYPSSSGSTDYASWAKGRFTISKTSSTTVTLQMTSLTAADTATYFCARDIPYNIHGYTTGFNLWGPGTLVTVSS VL: ALVMTQTPASVEAAVGGTVTIKCQASQSIGSNLAWYQQKPGQPPKLLIYSASTLASGVSSRFKGSRSGTEFTLTISDLECADAATYYCQFTYYGSSDVDVFGGGTKVVVE",Kd (recombinant mouse CHI3L1 [4]): 7.92 nM; koff (recombinant mouse CHI3L1 [4]): 0.000592 s⁻¹; kon (recombinant mouse CHI3L1 [4]): 74800 M⁻¹ s⁻¹; Kd (recombinant human CHI3L1 [5]): < 0.001 nM; koff (recombinant human CHI3L1 [5]): < 1e-07 s⁻¹; kon (recombinant human CHI3L1 [5]): 189000 M⁻¹ s⁻¹
no binding,binds,"anti-CHI3L1 monoclonal antibody C18 (antibody, V domains shown, Rabbit mAb) VH: KQLVEESGGDLVRPEGSLTLTCKGSGFDFSRNAMCWVRQAPGKGLEWIACIYVGSGGGTYYATWAKGRFTISKTSSTTVTLQMTSLTAADTATYFCAGSPYSGYGYFNLWGPGTLVTVSS VL: DPMLTQTPASVSEPVGGTVTIKCQASQSISTALAWYQQKPGQPPKLLIYRASILASGVPSRFKGSGSGTEFTLTISDLECADAATYYCQSYYDSSAGNTFGGGTKVEIK",
no binding,binds,"anti-CHI3L1 monoclonal antibody C23 (antibody, V domains shown, Rabbit mAb) VH: QSVKESGGGLVQPGGSLTLSCKASGFDFSSYYMSWVRQAPGKGLEWIGIIYGGKGTTDYASWVNGRFTISSDNAQNTVDLQMNSLTAADTATYFCARDYVSSSGYYMDLWGPGTLVTVSS VL: ALVMTQTPASVSAAVGGTVTIKCQASEDIYSLLAWYQQKPGQPPKLLIYDASDLASGVPSRFSGSGSGTEYTLTISDLECDDAATYYCQGGYYSGSPTDNSFGGGTKVVVE",
no binding,binds,"C22 (antibody, V domains shown, also called anti-CHI3L1 monoclonal antibody C22) VH: QLVEESGGGLVKPGAPLTLTCTLSGFSFSSGYYMCWVRQAPGKGLEWIACIYGAVSDRIYFASWAKGRFTMSRPSSTTVTLQMTSLTAADTATYFCARDSYSGSTYYRSYYFNLWGPGTLVTVSS VL: DPVLTQTPASVSAAVGGTVTISCQSNENIYVDKYLSWYQQKPGQPPKGLIYSASTLASGVPSRFRGSGSGTQFTLTISDVQCDDAATYYCAGSFSSSDSCAFGGGTEVVVK",
no binding,binds,"anti-CHI3L1 monoclonal antibody C17 (antibody, V domains shown, Rabbit mAb) VH: QSVKESGGDLVKPGASLTLTCTASGFSFSSSYWICWVRQAPGKGLEWIACIDAGSSESTYYASWAKGRFTISKTSSTTVTLQMTSLTAADTATYFCARDSRVVAGVGMYLNLWGPGTLVTVSS VL: AIKMTQTPASVEVAVGGTVTIKCQASQSIGIYLAWYQQKPGQPPKLLIYDASDLASGVPSRFRGSGSGTQFTLTISGVECADAATYYCQQGDTIYNVDNTFGGGTKVVVE",
no binding,binds,"anti-CHI3L1 monoclonal antibody C19 (antibody, V domains shown, Rabbit mAb) VH: QEQLVEYGGDLVQPEGSLTLTCTASGFTISSTFYMGWVRQAPGKGLEWIGDMHVGSATTTYYASWAKGRFTISKPSSTTVTLQMTSLTAADTATYFCARYVNSGYYMDSWGPGTLVTVSS VL: AQVLTQTPASVEVAVGGTVTIKCQASQTISNLLAWYQQKPGQPPKLLIYDASTLAYGVSSRFSGSGSGTQFTLTISGVQCADAATYYCQQGWSSSNVDNVFGGGTKLEIK",
binds,binds,"anti-CHI3L1 monoclonal antibody C15 (antibody, V domains shown, Rabbit mAb) VH: QSVKESGGGLVQPEGSLTLTCTASGFDFSSNAMCWVRQAPGKGPEWIACIYNGDASTYYASWAKGRSTISKTSSTTVTLQMTSLTAADTATYFCARCFNRFYRGDLWGPGTLVTVSS VL: DPMLTQTPSSVSAAVGGTVSISCQSSQSVYDNDWLSWYQQKPGQPPKLLIYDASKLASGVPSRFKGSGSGTQFTLTISDVQCDAAATYYCAGDYINTIDNAFGGGTEVVVK",
no binding,binds,"anti-CHI3L1 monoclonal antibody C29 (antibody, V domains shown, Rabbit mAb) VH: QEQLVESGGDLVKPEGSLTLTCTASGFSFSDNYWMCWVRQAPGKGLEWIGCIYIGFSGTTYYASWAKGRFTISKASSTTVTLQMTSLTGADTATYFCARGVFYVGSGYWYYLNLWGPGTLVTISS VL: DVVMTQTPSSVSAAVGGTVTIKCQASQSIASYLAWYQQKPGQPPKLLIYRASTLASGVPSRFKGSGSGTEYTLTISDLECADAATYYCQTTYVGGSGNAFGGGTKVEIK",
no binding,binds,"anti-CHI3L1 monoclonal antibody C27 (antibody, V domains shown, Rabbit mAb) VH: QSVEESGGGLVKPEGSLTLTCTASGFSFSYRYYMCWVRQAPGKGLEWIGCIDNGDGDTYYASWVNGRFTISKASSTTVTLQMTSLTAADTATYFCARGSSGYNGFNFWGPGTLVTVSS VL: ALVMTQTPASVSAAVAGTVTIKCQASQSIGSYLAWYQQKPGQPPKLLIYATSILASGVSSRLKGSRSGTEYTLTISDLECADAATYYCQCGYYDSNYGGAFGGGTEVVVK",
